From US10801046B2, “Methods and materials for biosynthesizing multifunctional, multivariate molecules via carbon chain modification” (INVISTA NORTH AMERICA S.A.R.L., priority 2016, dated 2020)

B1: SEQ ID NO: 73: Thalassospira xiamenensis M-5 thioesterase (protein)
chain: MTIQWDEIAKPALPANCGWRGTYRVRYSEIGDNGLAMLPALADYMQDAAGWGARILKLAYDDTVDKGMAWVLARMVIHVRRYPGNGEDIIVETWPSGVARRVATRDFRLIDSSGDVIAVAQSFWVMFDLLERRAASWPDWIEERLPKPPGPKLIEPPFRPPFTTDPLPEIDSIKARPSDLDLYGHVNNVRLMQWVLGATGADSKPDFHPESIDIQFRTECRVQERVTVRQKDGFAAITRDGDGVDLVRAHVVPKNRTALA
modifications: Thalassospira xiamenensis M-5 = DSM 17429
notes: Thalassospira xiamenensis M-5 thioesterase
B2: SEQ ID NO: 205: Kuraishia capsulata CBS 1993 carboxylate reductase (protein)
chain: MPSLPLPPYRAVFERAEDITRDALPFPPERNQRGIAVPGSVEPGYSAIYRSAATPDFLYDRVSPELDTYYRILKRSFEIFKDEDCVSERPQTGENSWSDKFVPRSYGEVYHDSLNFGSGLKYLLQKNEFRSGTEIPDKDYIVSIFSRNRAKWLVADISCTLFSLPNTALYDTLGPDTSTYILGLTKSPVVVAASDKISKLLDLKEADPAKLKNLIMLVAMDNLEPEVYSDLSRRAYKLNVKLYEWDQVTEAGILFPHEEVPPAPDSIYSLSFTSGTTGPPKGAILLHSGVAAGVAFTSATIDTPKQKAKLLSILPLAHIYERMTMALQLFRGGCLGFPHQPGPEHIVPNLRLFKPNLFSGVPRLFNKFEGVLKAATVHNPNASPAKRALAKRIIEWKMKQQCSKDGERGESILYDKLLNNKLRAALGFDNLYGVVTGSAPISAETIKFLKAALGVSFHQGYGLTETFAGVCVSAGLETDPGSCGVIGIATECRLKDTPELGYTSSDEGGPRGELLLRGSQVFPGYYKNEEETKKALDEDGWYHTGDIARIDSKCRIYVIDRVKNLFKLSQGEYVAPERIENIYLSSCTDFVSQIYVHGDSFSNYLVGIVGVDILGLSAFLKRKHPDLWRQVEGKTPEEILDIISSSRQLKSAILAQMNRNVSSAGLNGYEKLHNLKIGIEPLKVEDEVLTPTLKLKRNNALTKFNTDLKNLYEEGSLIKNEKL
modifications: Kuraishia capsulata CBS 1993
notes: Kuraishia capsulata CBS 1993 carboxylate reductase
B3: SEQ ID NO: 188: Vibrio mimicus thioesterase (protein, listed as Vibrio mimicus)
chain: MIRLLSLVLFFCLSAASQASEKLLVLGDSLSAGYQMPIEKSWPSLLPDALLEHGQDVTVINGSISGDTTGNGLARLPQLLDQHTPDLVLIELGANDGLRGFPPKVITSNLSKMISLIKDSGANVVMMQIRVPPNYGKRYSDMFYDIYPKLAEHQQVQLMPFFLEHVITKPEWMMDDGLHPKPEAQPWIAEFVAQELVKHL
B4: SEQ ID NO: 189: Sedimenticola thiotaurini thioesterase (protein, listed as Sedimenticola thiotaurini)
chain: MKKLFLLLIFAMSNVPAAEPVILVLGDSLSAAYGIERSRGWVSLLQSRLQQAGYPHRVVNASISGDTTAGGLARLPRALEQFQPDILIIELGGNDGLRGLGNRQTRDHLDQMITLARASHSRPLLLGMMLPPNFGKAFTEKFLQIYRDLAEQRNVPLVPFFLAGVADRPEWMQSDGIHPTAEGQPLMLEHVWEQLQPMLEETSVHSDKSLK
B5: SEQ ID NO: 190: Bacteroides finegoldii CL09T03C10 thioesterase (protein)
chain: MSESNKIGTYKFVAEPFHVDFNGRLTMGVLGNHLLNCAGFHASDRGFGIASLNEDNYTWVLSRLAIELDEMPYQYEDFSVQTWVENVYRLFTDRNFAIMNKEGKKIGYARSVWAMISLNTRKPADLLALHGGSIVDYICDEPCPIEKPSRIKVTNTQPLATLTAKYSDIDINGHVNSIRYIEHILDLFPIDLYKTKRIRRFEMAYVAESYFGDELTFFCDEANENEFHVEVKKNGSEVVCRSKVIFE
modifications: Bacteroides finegoldii CL09T03C10
notes: Bacteroides finegoldii CL09T03C10 thioesterase
B6: SEQ ID NO: 191: Pseudoalteromonas sp. SW0106-04 thioesterase (protein)
chain: MSASILRVFIVLLLVTKPLFAWADNQILVLGDSLSAAYGLKQHQGWVQLLQDTYEQQNTPTTLINASISGETTGGALRRLDAILKEHTPTHVLIELGGNDGLRGFPVTKMKANLHALIDKSREAGAEVALMQIRIPPNYGRRYTELFEQSFVDVAKEKQVTLMPFFVEQVATNGELMQNDNIHPNAEAQPILRDIMKTQISNWLTK
modifications: Pseudoalteromonas sp. SW0106-04
notes: Pseudoalteromonas sp; SW0106-04 thioesterase
B7: SEQ ID NO: 86: Marine sediment metagenome thioesterase (protein)
chain: MTVKALTTRLPAPGPQVRYFSALRSAVLCVFLLAAGFCASTSAESDDGVLLVFGDSLSAAYRMDERDGWVALLQQQLREESTALQVVNGSVSGETTAGGLARLPAMLDAHQPDIVMLELGGNDGLRGLPVTSIRQNLERMIQMSQQAGARVILAGIQIPPNYGPRYTAPFYAQYQELADEYGLVLIPFLLEGIADNPALMQDDGIHPTAAAQPMIVDTVWPVLQGVLTATDRP
modifications: Description of Unknown: Marine sediment metagenome
notes: Marine sediment metagenome thioesterase
B8: SEQ ID NO: 192: Vibrio mytili thioesterase (protein, listed as Vibrio mytili)
chain: MIRLLSLFLFFSLSTLAHANEKLLVLGDSLSAGYQMPIEKSWPSLLSNALLEHDQDVTVINGSISGDTTGNGLARLPQLLDQHTPDFVILELGANDGLRGFPPKLITANLSKMITMIKNSGAKVFMMQIRVPPNYGKRYSDMFYDIYPKLAEHQQVTLLPFFLEHVVTKPEWMMDDGLHPKPEAQPWIAEFVAQELIKHL
B9: SEQ ID NO: 82: Vibrio shilonii AK1 thioesterase (protein)
chain: MIRQLSYFVLIVISLASFHAKAATLLILGDSLSAGYNMRAEQSWPTMLSDELSSGDEPMKVINGSVSGDTTSNGLAKLPGLLKQHSPDYVLIELGANDGLRGFQPSIIKNNLASLIEMSQQAGSKVLLMQIRIPPNYGKRYASMFEGIYPALAQESGVPLLPFFLEQVIIKPEWMMEDGLHPKPEAQPFIAQFVAESMQPHL
modifications: Vibrio shilonii AK1
notes: Vibrio shilonii AK1 thioesterase
B10: SEQ ID NO: 193: Pseudomonas fluorescens thioesterase (protein, listed as Pseudomonas fluorescens)
chain: MRVWFLSAGLALMCMAQNAAAGTVLIVGDSISAGFGLDTRLGWVSLLEQRLEQEGFDDKVVNASISGDTSAGGQARLPALLAEHKPDLVILELGGNDGLRGMPPTQLQQNLAAMIDSSRQSGAKVLLLGMQLPPNYGKRYTDAFAEVYGKLADDKKIPLVPFFLDGVGGHPDLMQADGLHPAAGAQGKLLENVWPTLKPLL
B11: SEQ ID NO: 194: Pseudomonas stutzeri (strain A1501) thioesterase (protein)
chain: MRRWLKCGALALLCWTQGALAGTVLVVGDSISAAFGLETSQGWVHLLQERLVEGDESWRVVNASISGDTTAGGLARLDPLLEEHTPEVVILELGGNDGLRGQSPVQLKQNLADMIDRSREAGAEVLLLGMRMPPNLGQRYTRAFADAFDSLAQEKSVAYVPFLLEGVGGVAGMMQADGIHPTAEAQSQLLETVWPALEPLL
modifications: Pseudomonas stutzeri (strain A1501)
notes: Pseudomonas stutzeri (strain A1501) thioesterase
B12: SEQ ID NO: 195: Halobacteriovorax marinus thioesterase (protein, listed as Halobacteriovorax marinus)
chain: MKSPVFKKKYQVSISNVNINKRLGLFGLLGYLQDIATLHAEIAGFGLDEMISSNSFWVLVRQEIRMNKFPKWNDEIEIQTWSRTPQGMYAFREFEFFLNDEKVGSCSTAWMILSGDTRRIKKPDFPIEKINPRLDSLLDYCAERIKVLDNFELVNEIKVRISDLDLNMHVNNTKYTQWVLDSIPIELHKSAKLRNYQINFLKEAHLGDEIDIYRASSAKDESAHDTQFKGIRRSDQSTIFYVNIIADT
modifications: Halobacteriovorax marinus (strain ATCC BAA-682 / DSM 15412 / SJ)
notes: Halobacteriovorax marinus thioesterase
B13: SEQ ID NO: 85: Ferrimonas balearica thioesterase (protein)
chain: MVRRSLLILMLCLYQPGAWADQPSILILGDSLSASYGMSEAEGWVKKLQQNLPDAQIINASVSGETSGGGLRRLPGLLQQHQPDWVFVELGGNDGLRGFQPTITENNIEQLITLSKASGAQVLLSEVMVPPNYGRRYAERFQQIYHGLAKEHEVELVPFFMTEIATDPNLMQADGIHPNREAQGRIAAFLLPWFEQAIAE
modifications: Ferrimonas balearica (strain DSM 9799 / CCM 4581 / PAT)
notes: Ferrimonas balearica thioesterase

tested on: heptanedioyl-ACP methyl ester; assay: not given; type: cell-based, Escherichia coli; conditions: 146 thioesterases screened

Molecule | impact on monomethyl heptanedioate production
B1 | promising

same assay, conditions: top 150 hits screened in vivo

Molecule | activity toward heptanedioyl-ACP methyl ester in vivo
B1 | showed activity toward heptanedioyl-ACP methyl ester

tested on: not listed separately; assay: In vivo carboxylate reductase screening, substrate consumption by LC-MS, heptanedioate; type: cell-based, Escherichia coli; conditions: 541 enzymes screened in vivo
Experimental: To screen carboxylate reductases in vivo, […] T7- pUC expression vectors was co-transformed into T7 Express lysY/Iq with the phosphopantetheinyl transferase sfp from Bacillus subtilis on a T7-pCDF expression vector. Biological duplicates of the resulting strains were incubated in 0.5 mL of terrific broth containing either 1 g/L heptanedioate or 1 g/L monomethyl heptanedioate and supplemented with 0.4 mM IPTG in 96-well deep well plates. The plates were incubated for 30 h at 30° C. in a shaking incubator. The cells were then pelleted, and culture supernatants from the same strains in media containing either heptanedioate or monomethyl heptanedioate were combined. The combined supernatants were analyzed by LC-MS to determine the concentration of heptanedioate and monomethyl heptanedioate. Carboxylate reductase activity on heptanedioate or monomethyl heptanedioate was reflected by consumption of the respective substrate in the medium.

Molecule | substrate preference, heptanedioic acid to 7-oxoheptanoate
B2 | preferred acting upon heptanedioic acid to form 7-oxoheptanoate

tested on: heptanedioyl-ACP; assay: not given; type: cell-based, Escherichia coli; conditions: top 150 hits screened in vivo

Molecule | activity toward heptanedioyl-ACP in vivo
B1 | displayed considerable activity toward heptanedioyl-ACP
B3 | displayed considerable activity toward heptanedioyl-ACP
B4 | displayed considerable activity toward heptanedioyl-ACP
B5 | displayed considerable activity toward heptanedioyl-ACP
B6 | displayed considerable activity toward heptanedioyl-ACP
B7 | displayed considerable activity toward heptanedioyl-ACP
B8 | displayed considerable activity toward heptanedioyl-ACP
B9 | displayed considerable activity toward heptanedioyl-ACP
B10 | displayed considerable activity toward heptanedioyl-ACP
B11 | displayed considerable activity toward heptanedioyl-ACP
B12 | displayed considerable activity toward heptanedioyl-ACP
B13 | displayed considerable activity toward heptanedioyl-ACP
